Results reported in patent publication US20260242472A1 (SANYOU BIOPHARMACEUTICALS, published 2026).

Tests used:
H2C-scFv-LH [1] = target: T1, H2C-scFv-LH (human); test: SPR (Biacore T200), antigen amine-coupled to about 75 RU, antibody 4 and 20 nM, 1:1 Langmuir fit
T1 construct: also called control antibody H2C-scFv-LH; parent antibody
Protocol: Protein coupling: The huCD3E-AA1-27-huFc protein produced in example 1.2 was diluted to 5.8 μg/mL with an NaAc buffer at pH 4.5. The flow rate was set to 10 μL/min. The chip was activated with a mixture of 1-ethyl-(3-dimethylaminopropyl)carbodiimide (EDC) and N-hydroxysuccinimide (NHS) for the default time of 420 s. The antigen protein huCD3E AA1-27-huFc was immobilized to a level of approximately 75 RU using a coupling mode with a preset coupling amount. The activated groups not bound to the test sample were blocked with ethanolamine.
Sample test condition: A PBS buffer (pH 7.4) containing 0.05% Tween-20 was used as a running buffer, and the running buffer was used as a control antibody test sample. A series of antibody concentrations (4 nM, 20 nM) were set. During sample analysis, the flow rate was set to 30 μL/min, the binding time was 180 s, and the dissociation time was 300 s. After dissociation was completed, regeneration was performed with 10 mM Gly-HCl (pH 2.0) for 20 s to completely remove antibody bound to the antigen.
Parameter fitting: The experiment was run in multiple cycles, with the response signal plotted against analysis time on the abscissa and response value on the ordinate. After dual-reference subtraction, the obtained data were fitted by BIAcore T200 analysis software. The fitting model used was a 1:1 Langmuir binding model, so as to determine affinity indicators such as the binding dissociation constant.

63-scFv-LH = target: T2, 63-scFv-LH (human); test: BLI (Gator), biotinylated antigen on SA probe, antibody 0.62-40 nM
T2 construct: scFv-Fc
Protocol: (§1) Protein biotinylation: The antigen protein huCD3E AA1-27-huFc was diluted to a final concentration of 1 mg/mL, premixed with biotin and reacted at 4° C. for 1 h, and then unreacted free biotin was removed by filtration with an ultrafiltration tube to obtain biotinylated huCD3E AA1-27-huFc (hereinafter referred to as huCD3E-AA1-27-huFc-Biotin).
(§2) In the dark, the sensor was pre-wetted with Q Buffer (SA Probes, ProbeLife). After 10 min, the sample plate (Greiner, 655209) was tested. After the test was correct, the preset procedure was followed. First, antigen binding was performed for 600 s. After the binding was completed and equilibration was continued in Q Buffer for 30 s, the sensor bound to the antigen huCD3E-AA1-27-huFc-Biotin was transferred to different concentrations of antibody dilutions for binding for 120 s, and then transferred to Q Buffer for dissociation for 180 s. Finally, KD, Ka and Kd were obtained by fitting the binding and dissociation data of different concentrations of antigens and antibodies.

79-scFv-LH = target: T3, 79-scFv-LH (human); test: as above
T3 construct: scFv-Fc
Protocol: as §1, §2

H2C-scFv-LH [2] = target: T1, H2C-scFv-LH; test: as above
Protocol: as §1, §2

| Kd (H2C-scFv-LH [1]) | koff (H2C-scFv-LH [1]) | kon (H2C-scFv-LH [1]) | Kd (63-scFv-LH) | koff (63-scFv-LH) | kon (63-scFv-LH) | Kd (79-scFv-LH) | koff (79-scFv-LH) | kon (79-scFv-LH) | Kd (H2C-scFv-LH [2]) | koff (H2C-scFv-LH [2]) | kon (H2C-scFv-LH [2]) | Binder |
| --- | --- | --- | --- | --- | --- | --- | --- | --- | --- | --- | --- | --- |
| 0.0596 nM | 0.000165 s⁻¹ | 2.77e+06 M⁻¹ s⁻¹ |  |  |  |  |  |  |  |  |  | huCD3E-AA1-27-huFc (Fc fusion, Made in HEK293 cells, purified on Protein A/G. No linker between the two parts is mentioned; also called antigen protein) QDGNEEMGGITQTPYKVSISGTTVILTTHTCPPCPAPELLGGPSVFLFPPKPKDTLMISRTPEVTCVVVDVSHEDPQVKFNWYVDGVQVHNAKTKPREQQYNSTYRVVSVLTVLHQNWLDGKEYKCKVSNKALPAPIEKTISKAKGQPREPQVYTLPPSREEMTKNQVSLTCLVKGFYPSDIAVEWESNGQPENNYKTTPPVLDSDGSFFLYSKLTVDKSRWQQGNVFSCSVMHEALHNHYTQKSLSLSPGK |
|  |  |  | 0.358 nM | 0.000428 s⁻¹ | 1.19e+06 M⁻¹ s⁻¹ | 0.222 nM | 0.000184 s⁻¹ | 826000 M⁻¹ s⁻¹ | 0.318 nM | 0.000327 s⁻¹ | 1.03e+06 M⁻¹ s⁻¹ | huCD3E-AA1-27-huFc-Biotin (Fc fusion, biotinylated (sites not given), also called biotinylated huCD3E AA1-27-huFc) QDGNEEMGGITQTPYKVSISGTTVILTTHTCPPCPAPELLGGPSVFLFPPKPKDTLMISRTPEVTCVVVDVSHEDPQVKFNWYVDGVQVHNAKTKPREQQYNSTYRVVSVLTVLHQNWLDGKEYKCKVSNKALPAPIEKTISKAKGQPREPQVYTLPPSREEMTKNQVSLTCLVKGFYPSDIAVEWESNGQPENNYKTTPPVLDSDGSFFLYSKLTVDKSRWQQGNVFSCSVMHEALHNHYTQKSLSLSPGK |
